Results: patent US20250186633A1, “METHODS FOR IMAGING INTEGRIN EXPRESSION AND FOR IMAGING SITES OF ENDOMETRIOSIS” (SERAC HEALTHCARE LTD, priority 2022, published 2025)
Starred links: 1 amine or outer side, 2 acyl side, 3 side chain; linkers in the order of their positions; H or OH if unused. Positions of bridges follow the written chain, without caps; N, C: chain ends. Residues, ends and D or L forms follow the SMILES beside them. Groups on a side chain read outwards from the residue. *: point of attachment. X1 = C/C(=N/O)C(C)(C)NCCC(CCNC(C)(C)/C(C)=N\O)CCN*; Glutaryl = O=C(CCCC(=O)[*:2])[*:1]; X2 = NC(=O)COCC(=O)NCCOCCOCCOCCN*

Experiments:
endometriosis lesions = tested on: endometriosis lesions; design: species or system rat, mouse; conditions: in vivo
Excerpt: (§1) A rat surgical model of endometriosis was used, together with immunocompromised mouse and isogenic mouse models—all 3 animal models of endometriosis are as described by Story, L. ILAR J., 45(2) 132-138 (2004).
(§2) The uptake of ^99mTc-maraciclatide was compared with that of ^99mTc-[…]. NC100667 is described by Edwards et al [D. Edwards, Nucl.Med.Biol., 35, 365-375 (2008)]. NC100667 is a negative control peptide, in which the arginine residue of the RGD binding motif of maraciclatide (NC100692) was replaced with an alanine residue. Thus, only one amino acid residue was changed—all other aspects of the agent were otherwise the same.

endometrial lesions = conditions: rat, in vivo
Excerpt: as §1, §2

endometrial lesion = conditions: mouse, in vivo
Excerpt: as §1, §2

SMILES: C/C(=N/O)C(C)(C)NCCC(CCNC(=O)CCCC(=O)NCCCC[C@@H]1NC(=O)CSC[C@@H](C(=O)NCCOCCOCCOCCNC(=O)COCC(N)=O)NC(=O)[C@H](Cc2ccccc2)NC(=O)[C@@H]2CSSC[C@H](NC1=O)C(=O)N[C@@H](CCCNC(=N)N)C(=O)NCC(=O)N[C@@H](CC(=O)O)C(=O)N2)CCNC(C)(C)/C(C)=N\O (stereo partly drawn) [^99mTc-maraciclatide, metal not drawn] ({CH2CO}-K([Glutaryl-X1])CRGDCFC-X2; disulfide 2-6; thioether N-8)
- uptake and retention in animal models of endometriosis (endometriosis lesions): demonstrated in all experimental animal models of endometriosis
- uptake in endometrial lesions versus control lesions of abdominal fat (endometrial lesions): higher compared to control lesions of abdominal fat
- ratio of endometriotic lesion to blood (endometrial lesion): 4.0
- ratio of endometriotic lesion to muscle (endometrial lesion): 8.3
- retention in ovaries and uterine horns (endometrial lesion): ~35%
- uptake in endometrial lesion, time course at 1, 2 or 3 weeks post implantation (endometrial lesion): greatest at one week post uterine horn inoculation
